# Experimental data from the domain aggregation screens of Martell et al. (2025).
# Assay: soluble fraction after stress (log2 fold change); higher = more stays soluble; pooled small domains, quantitative proteomics
# Conditions: stress: 50 degC
# Procedure, shortened: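 After stress at 50°C, the amount of each protein still soluble was measured. This was done on pooled custom libraries of small protein domains, using high-throughput quantitative proteomics. The figure given is a base-two log fold change and stands for aggregation propensity, with higher values meaning more protein stays in solution.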
row,Sequence,soluble fraction (log2)
1,HMDIDLNTIKKITLDDIHAFLSYLTTTYHSKAATRARKASSIRVFFNYLSAKANLIEVNPAQNLETPKLD,0.0581
2,HMNSFGWESLIDKEGIADTDLHPSGWVRIDDRRIFVVSEGDFIDKGSGVTVLSVDGNRVVVRELI,-0.836
3,HMKVQLGMNTREVRGIMGKPFSEDTFVEGEKRVDVLHYKEAVRVKTQGFILTTSLRFENDSLTAI,-1.74
4,HMEELVGFEEKVRSILTSPLSAKEIKEKTHIEIDTRKLSKMLSELSFIKTEKKNGKKIFRLVS,-0.284
5,HMNTFDLSKLEEIILASRDKAMKTKEFTELDNLKNLFITAGLDVQMSKNGIKLIKGPKFNSSLLEDF,-0.655
6,HMNRTEYMAALRRALSVLPEEERASALRYYEEYFDDAGPENEEKVIADLGAPEKVAGQILADYRE,0.00316
7,HMTSTEQQIEQFIGTLVSLGGSAGNQRLLEALGWQDSIYQRVKQQLIDDGRIRPGRGRGGSVVLAE,-0.074
8,HMAEATATVTASEMVVRSGPSSSYSVLGSLEKGTVVTVLAASDGIAKISYKGNTGYARIVDMELNSA,-0.0414
9,HMQDTIDLVIQVNGKLRGQMNVPKDTDRATIEQLAINLENVQKIVAGNAIKKIIIVPGRLINIVVSKNL,-0.925
10,HMDVYKRQKLRNFIESLFEDAPKNKQTIELKEEMLQNLIDKYNDLVDSGKSSEAAYNIATAS,-0.0392
11,HMSLIEQKSQIPLVQGGQRVDKVAAALFTDFSRAELTGWIQQGALTLDGAVVKPKYKVLGGEWLYLRASQS,-2.02
12,HMRLTIAQLSEKTGVPERTIRYYIDRGLVPSAHGERRGAWYDTVHLEPLLRIQQWREAGLSLEAIADLLR,-1.19
13,HMDISEIEKRLLDFLEMPRSRKEIAEHLGIRTISYAIQTYITPLIDKKLVKMTIPESPRSHSQQYVRIN,-0.92
14,HMWNTADDIKEAIWKLIQSEDPKKPYSDLKISQLLLEKEMKISRRTVAKYRKEMGILGTYSRK,-0.347
15,HMAAPVGLTQRQMEVAALVADGLTNAEIGRRLHITERSAESHLERVRIRLGFRSRAQVAAWFVTQE,-3.5
16,HMKLTEEEFNAKRKAYLDRLETLNDEAVIKATFMEAASGLGLQKGSAEFGDLRKYFVDRIVDIK,0.385
17,HMKTPAPRETILSLFRQTPDGFVSGERISDELGVSRTAVWKHIRNLRQAGYQIEAIPSRGYQLQQS,-0.359
18,HMRFNIGNVIEHYKLNTEDLAKVLFPTVKYPKQAFDRVLKGEANLDVIQLERLANHIGVLVTDLF,-0.196
19,HMNYKLESYLKKVDDQLNFIPVSDKADILSELKNTFYERLLNGQTEEEILDEMESPRELALSYMSES,0.0578
20,HMKGAADPAIKQKVLDYLDTVEKAKSKEIAKAISEEKSAVDLAVKELAFEDKVEYLYITTTFVALKGKVA,-0.168
21,HMDKVVGSAGDVTSRITANSGEVKIDGQIWQARSYDETIAIEAGEKIEVFDLDGITLIVYPI,-0.604
22,HMFDEVKDAARRLAALLDQAGGTLTLNDKSAPEEVAALTGMSKKVFKRALGHLMSRSEVVVADGRITKKD,-0.289
23,HMKLVELVGSPKQIAWAEDIRKNMISYLSALVRKYEAENRPARAEKRAKDMEILSNIKEASWFIENRS,-0.661
24,HMEFEKYKYHYIFDDVLGLRIVWDRGKEHFSYFVNEELAEKSRKSDKDALEVMFYLEHKRWPEEGELENY,-0.687
25,HMKVDLSEEEKTILELLKKESPQELETIKAASTLSNKKWDKAIKGLRKHNLAKVNKTDDGLFVELE,0.257

row,Sequence,soluble fraction (log2)
1,HMIIIMKMGADESQVQETIKRIKDLGFNTHLSKGENRTIIGVIGDVSSIDESDVERLRATPYIAEVVRVS,0.0267
2,HMPSRPIQVASFSKEDNAKRAAEALAKIGVTATPQKSEKAGKAVWGVVVTGDDAMLQKIKDAGFADAYFL,0.0921
3,HMVSLNKTEFIAVKKASASELRDKINSLGLDVLKDATISADARTNQIIATGPKYALEQIKMLVVGLDVSS,0.0771
4,HMATQMSSARRGIATDEMKQVAKDEDVTLDWLLPKIAIGSIIIPSNNVRPQKIHNVGIGKGMKTKVN,0.116
5,HMNMPYGTVKWFNDAKGFGFIAPEDGSADVFVHFSAINSKGFRSLQEGQRVSYEVTTGPKGAQAAGVTPVT,-0.331
6,HMNNDSQYLATLQRYYAEHRVLPSYARMLPLLGFASKAAVKKVLERLEVVGMLERTEDGDWAPSERFFER,-1.7
7,HMQAATQVNIVGLFSNKAVVIINGGKPKTLSVGQTSEGVKLLAADSQTATLQIEGKTQQLGMGQAASVGG,0.134
8,HMGRTKEEIFNILKERIVTLQYEPGKILNEIELSEEFEVSRTPIRTVFQQLEAVKLVSIVPRYGVQVA,-1.27
9,HMGQLIVTIPNFERRPAEQAIQKLEELGLVPEEKQIYHDDIPAGSVIYTDPSKDSQVNAGTKVYVYVSLG,-0.116
10,HMNSDQMKEHLDNLVDMAKKNDNTLIDTEIVNYFVGKPDIELNTDMMTKIFDYLDEHHVAVLS,-0.107
11,HMEDNLVTYPNPTSDYIYVSKKVDLTVVNMLGDILIQKQNINVLDVTELTPGMYTIVIRYNNVTTNKRIIK,-0.372
12,HMVLVSNYGEVVRKARERKGLDHGSLAMKISEKKSIITSVESGNMKPNEKLIKKLENFLNINLM,-1.33
13,HMLQSGSDYLIEQVRMYTATGQREYMDNYFEELNTTRRRENALEYFAEHYGDNDAFTLLKSAMTTSQN,-0.428
14,HMERFMEFVITDTQQGQRLDVVLTETTEHLGSRSHMQRSIRAGLVSIDGITTTRASTKVSSGQIIRVEPT,-1.49
15,HMITFRINQQSQVGLRLDKFIVQQMPDYSRTRIQSWIKTKNILVNGEGKKSGYALEFDDLVEVTIPE,-2.04
16,HMLSLDDAAFERYDLTMREREVLLLLLNRLTYEEIAERLFISTNTVKTHVGNVYKKTGVSSRKELVSK,-1.08
17,HMEDPFATLGVHREASLDEIKRAYRRLAMFWHPDRNPEAVAGTEFKRVHAAYELLLDPQRLAEWQQAQAT,0.04
18,HMRVDYKTQLQELLQRQGAAAPQYRLLVEEGPAHLRRFQVGVYFQGRLLGTGWGRNKKEAEQEAARQALMP,-0.494
19,HMNHYTEEYILKRMKDFFTTHAYITRRDIESLFGFRRSYATKWLKHFRESGVLKQSGPVNSAVYLL,-2.83
20,HMEETIVFGQQKAINALSSDAGLSSNELDSYLKKRYKRPLYQLSKSEGAELIQGFQDGSLSKASIMDYVS,0.169
21,HMEETAFEKLSPLQKLRALGKPLTMINMRDGSQIAGSVQRSDDKFLYLDTGDGIAKLPVEEILRRTPM,0.25
22,HMERQAEAWTNRASALISLGRDEEALEAADRAIELDPRLSKAWIDRSTALSNLGRNDEANEAIQMAMFL,0.108
23,HMKTLDAFFDQARDAYKKLKKDGDIDNLKVLRNQLQTVRETQGDAVRKKSKEEYRRLVDIIDDIDGLLAAF,-0.102
24,HMLKKRKPMSGVGVIVKGMLTGTVTGTDGSYALKARPNDELSFSFLGYKTQEVFVGSKSTIDITLVDEA,-0.13
25,HMKPEDIALLEEIRDLLKEKKSVIVNLEYVNKDVARRIVDFISGGVFALNGHIQKVSNSIFLVAPMN,0.00619

row,Sequence,soluble fraction (log2)
1,HMDGLDFIINENGKIANINEEGELLAKGENIMLGYYKDSISTNNTINNGWLHTGDIAKIDNDGFIYL,0.0618
2,HMSEYNPGIYRVTDPALNIRTGPGVEYPVVGVIKDQGSYTITEIRNKSWGRLLSGAGSTAIKHIVFT,0.0941
3,HMRSNQKVSQIAISQVLPGMVTAKNVYSRNDQLILNRETTLDSTKIAKIMFYAIESIYVYEPE,-1.9
4,HMLWTHIALPVRSLDDTMAFYDKYTTLENIHERQDPETNMRSVWLANPGDKTEQAARFVLVLI,-0.116
5,HMTSPELIELGERIRKRRQEMNLSQEALAEKAGISINTVSRVEGGQTAMSIEIFRKMIEILETDANGL,-0.212
6,HMGGTAGKINAIGVNFRTGPSTSYTSLGLLGKDTAVTVIGTSGKWYKVTIVSTGKTGYVYATYVNLTP,-1.81
7,HMEQIGSIIKDIRKKNNLTQNEFASILGVTFQAVSKWENDKSIPDITILKDISNKFNVDLNYLISG,-0.0472
8,HMYHADLIGLRVETAAGEKLGTVKAVHNFGAGDVIEITGAEDKDGLMVPFTAEVVPEVDIENGRIVVS,-0.331
9,HMGSTYGISRVDNETSRTHGWLVTIQRRGVIYRKHFSDGVFGGKQRSFAAAKEYRDEVIAAHP,-0.672
10,HMKLPNGYGGIAKLSGKRRNPWRVRVTKGWSVDEQTGKAKQLFSTLGYYPTRKDALAALSAYNQNP,-0.942
11,HMNKKETRLNNFIHFLKIRNSITVKEMANHLNVSEMTVRRDIKELTADHTINFENGKIMFNPQSSL,-1.06
12,HMLKREDEVIVVAGKDKGKRGTITQLVGDDRVIVAGVNMVKRHTKPNPNLGQPGGIVEREASLHISNV,0.296
13,HMKMVSTPTGTRISLTQVKEFISNASFDDMKEILLEVLAWFKAHNLGNPFNYNRAFEFIVAH,0.102
14,HMRDLTARQQQILALIRQHIADTGFPPTRAEIAAQLGFRSPNAAEEHLKALARKGVIELASGASRGIRLK,-0.16
15,HMSYFNEYEVGDTIRVVNGPLADQISTITAIDKEKGLVNISTVFFGRENNVQVSINDIEKYN,0.0466
16,HMNAEWMFDARKIPGLVMNYLRRIAVRAIEEKHYSPELVADLFGIDRTSIYDWLRKYRQQGEEALDTRKA,0.012
17,HMAKRQATIVYEGTNVRSGPSTSSAIVKRTGKGESYPIVSTKGDWYEIKLSNGDSAYVASWVVQTVD,-0.328
18,HMVAMLDASYRGVMQTISTLLAQGNTERAYDEAVNARGQMSKQQWNNLANLIWERTGQKIDSGVSYK,0.139
19,HMSAGISVADVTNRTYDEGYNTLTAQHLLVNKVYEANETIPLDTIIRTDPVAGTKVPDNTSITVYVSSGK,0.000832
20,HMVEGVSLVEIYVDENSKYNGKLLSEIPKKENTLVIMIQRGEQVIIPHGNIRLESGDMLVVSKTEI,-0.649
21,HMGTSQSAVKAILAQLISDENKQKPYSDEALSRLLQQQGIDIARRTVAKYREALNIPPAHQRK,0.101
22,HMINFKVKNVQDVGSRLDKFLVTNIPEFSRSKIQKHIKNGKVMVNGLLKKTGYKLEINDEINILNN,-0.276
23,HMQEQIVQGIVKYFDAEKQFGFIAGDDGVDRFFNAKSIQGNAVKTGDRVRFLAISHIRGPRALKISA,-0.852
24,HMGEPLTVVAAAGGDRLDRWLAGQLAGRSRAEIQRWIEAGQVTLAGRSLKASYRLSAGDAIDVAIPPPE,-0.129
25,HMTNQKEITYSQFRQELDQGSIKSVSLQGSRIRGTYVDGGISFRTLAPNDADLIPSLMKHKVDIQVLPED,0.247
